Assay results reported in article PMC8240856 (The Journal of Cell Biology, 2021).
Substitutions are numbered along the chain they refer to. Names may count otherwise. Where two headings read alike, the source gives them in different places. One block for each binder: values may come before it.

Key:
His6-Vps4 [1] = target: T1, His6-Vps4 (S. cerevisiae, UniProt P52917 1-437); test: pull-down
T1 sequence: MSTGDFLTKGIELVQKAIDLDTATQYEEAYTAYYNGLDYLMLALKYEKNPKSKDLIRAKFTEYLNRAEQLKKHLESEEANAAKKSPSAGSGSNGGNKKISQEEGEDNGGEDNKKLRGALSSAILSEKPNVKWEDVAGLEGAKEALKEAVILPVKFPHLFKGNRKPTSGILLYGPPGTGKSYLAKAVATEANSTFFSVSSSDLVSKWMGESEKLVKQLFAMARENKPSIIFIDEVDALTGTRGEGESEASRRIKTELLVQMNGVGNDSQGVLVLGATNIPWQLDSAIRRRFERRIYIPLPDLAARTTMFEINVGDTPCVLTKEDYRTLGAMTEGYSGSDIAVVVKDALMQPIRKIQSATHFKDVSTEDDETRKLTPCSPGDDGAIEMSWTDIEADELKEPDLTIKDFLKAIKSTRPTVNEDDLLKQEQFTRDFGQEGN

His6-Vps4 [2] = target: T1, His6-Vps4; test: pull-down; remark: listed apart in the source

- binding result (His6-Vps4 [1]): binds
B1: GST-Bro1V(370-709) (domain or fragment)
chain: DVYEKESIYSEEKATLLRKQVEETETANLEYSSFIEFTNLPRLLSDLEKQFSDGNIFSNTDTQGQLMRDQIQTWCKFIQTNEFRDIEEQMNKIVFKRKQILEILSALPNDQKENVTKLKSSLVAASNSDEKLFACVKPHIVEINLLNDNGKIWKKFDEFNRNTPPQPSLLDIDDTKNDKILELLKQVKGHAEDLRTLKEERSRNLSELRDEINNDDITKLLIINKGKSDVELKDLFEVELEKFEPLSTRIEATIYKQSSMIDDIKAKLDEIFHLSNFKDKSSGEEKFLEDRKNFFDKLQEAVKSFSIFASDLPKGIEFYDSLFNMSRDLAERVRVAKQTE

- binding result (His6-Vps4 [1]): binds
B2: Bro1 V domain (Bro1V; aa 370-709) (domain or fragment)
chain: B1 chain

- binding result (His6-Vps4 [1]): binds
B3: Bro1V^M9 (T587D) (domain or fragment)
chain: B1 chain with T218D

- binding result (His6-Vps4 [1]): binds
B4: Bro1V^M4 (V505A, H508A, I512A) (domain or fragment)
chain: B1 chain with V136A, H139A, I143A

- binding result (His6-Vps4 [2]): binds
B5: Bro1V^M8 (E686A, L691D) (domain or fragment, S. cerevisiae, UniProt P48582 370-709, looked up)
chain: B1 chain with E317A, L322D

- binding result (His6-Vps4 [1]): binds
B6: Bro1V^M10 (K481D) (domain or fragment)
chain: B1 chain with K112D
